Columns and labels:
[1] = target: C3d^A4H-C3d^W41A heterodimer (human)
[2] = target: human C3d^17A (monomeric) (human); experiment: near-UV circular dichroism thermal melt; 87.5 µM C3d^17C or C3d^17A alone or with an equimolar concentration of the Sbi construct, 10 mM sodium phosphate pH 7.4, 250-320 nm, 5°C to 85°C; Tm from Boltzmann sigmoidal fits at 280 and 296 nm

Sbi domain IV (wild-type Sbi-IV) (from UniProt Q2FVK5 198-266) (domain or fragment)
increase in tryptophan fluorescence intensity of the C3d^A4H/C3d^W41A solution (100 µM, equimolar Sbi construct, excitation 295 nm), read as N-terminal helix swap [1]: 27%

Sbi domains III and IV (wild-type Sbi-III-IV) (from UniProt Q2FVK5 150-266) (domain or fragment)
increase in tryptophan fluorescence intensity of the C3d^A4H/C3d^W41A solution (100 µM, equimolar Sbi construct, excitation 295 nm), read as N-terminal helix swap [1]: 17%

truncated Sbi-IV mutant Sbi-IV^V198-D208del (from UniProt Q2FVK5 198-266) (domain or fragment)
change in tryptophan fluorescence intensity of the C3d^A4H/C3d^W41A solution (100 µM, equimolar Sbi construct, excitation 295 nm), read as N-terminal helix swap [1]: 2.5%
increase in melting temperature (Tm) of C3d^17A [2]: 6.5 °C

From paper PMC9174452
